Sequences and labels used below:
B1: GLS3000 Q93P (antibody, name in Kabat numbering, V domains shown)
VH: QVQLVESGGGVVQPGRSLRLSCAASGFTFSNAWMHWVRQAPGKGLEWVAQIKAKSNNYATYYAESVKGRFTISRDDSKNSLYLQMNSLKTEDTAVYYCRYVHYGAYYGVDAWGQGTTVTVSS
VL: DIVMTQSPLSLPVTPGEPASISCRSSQSLVHSNRNTYLHWYQQKPGQAPRLLIYKVSNRFSGVPDRFSGSGSGTDFTLKISRVEAEDVGVYYCGQGTPVPYTFGQGTKLEIK
notes: one-arm format as m2
B2: GLS3000 R24D (antibody, name in Kabat numbering, V domains shown)
VH: QVQLVESGGGVVQPGRSLRLSCAASGFTFSNAWMHWVRQAPGKGLEWVAQIKAKSNNYATYYAESVKGRFTISRDDSKNSLYLQMNSLKTEDTAVYYCRYVHYGAYYGVDAWGQGTTVTVSS
VL: DIVMTQSPLSLPVTPGEPASISCDSSQSLVHSNRNTYLHWYQQKPGQAPRLLIYKVSNRFSGVPDRFSGSGSGTDFTLKISRVEAEDVGVYYCGQGTQVPYTFGQGTKLEIK
notes: one-arm format as m2
B3: GLS3000 R24E (antibody, name in Kabat numbering, V domains shown)
VH: QVQLVESGGGVVQPGRSLRLSCAASGFTFSNAWMHWVRQAPGKGLEWVAQIKAKSNNYATYYAESVKGRFTISRDDSKNSLYLQMNSLKTEDTAVYYCRYVHYGAYYGVDAWGQGTTVTVSS
VL: DIVMTQSPLSLPVTPGEPASISCESSQSLVHSNRNTYLHWYQQKPGQAPRLLIYKVSNRFSGVPDRFSGSGSGTDFTLKISRVEAEDVGVYYCGQGTQVPYTFGQGTKLEIK
notes: one-arm format as m2
B4: GLS3000 R29S (antibody, name in Kabat numbering, V domains shown)
VH: QVQLVESGGGVVQPGRSLRLSCAASGFTFSNAWMHWVRQAPGKGLEWVAQIKAKSNNYATYYAESVKGRFTISRDDSKNSLYLQMNSLKTEDTAVYYCRYVHYGAYYGVDAWGQGTTVTVSS
VL: DIVMTQSPLSLPVTPGEPASISCRSSQSLVHSNSNTYLHWYQQKPGQAPRLLIYKVSNRFSGVPDRFSGSGSGTDFTLKISRVEAEDVGVYYCGQGTQVPYTFGQGTKLEIK
notes: one-arm format as m2
B5: GLS3000 R29G (antibody, name in Kabat numbering, V domains shown)
VH: QVQLVESGGGVVQPGRSLRLSCAASGFTFSNAWMHWVRQAPGKGLEWVAQIKAKSNNYATYYAESVKGRFTISRDDSKNSLYLQMNSLKTEDTAVYYCRYVHYGAYYGVDAWGQGTTVTVSS
VL: DIVMTQSPLSLPVTPGEPASISCRSSQSLVHSNGNTYLHWYQQKPGQAPRLLIYKVSNRFSGVPDRFSGSGSGTDFTLKISRVEAEDVGVYYCGQGTQVPYTFGQGTKLEIK
notes: one-arm format as m2
B6: GLS3000 R29L (antibody, name in Kabat numbering, V domains shown)
VH: QVQLVESGGGVVQPGRSLRLSCAASGFTFSNAWMHWVRQAPGKGLEWVAQIKAKSNNYATYYAESVKGRFTISRDDSKNSLYLQMNSLKTEDTAVYYCRYVHYGAYYGVDAWGQGTTVTVSS
VL: DIVMTQSPLSLPVTPGEPASISCRSSQSLVHSNLNTYLHWYQQKPGQAPRLLIYKVSNRFSGVPDRFSGSGSGTDFTLKISRVEAEDVGVYYCGQGTQVPYTFGQGTKLEIK
notes: one-arm format as m2
B7: GLS3000 R24Y (antibody, name in Kabat numbering, V domains shown)
VH: QVQLVESGGGVVQPGRSLRLSCAASGFTFSNAWMHWVRQAPGKGLEWVAQIKAKSNNYATYYAESVKGRFTISRDDSKNSLYLQMNSLKTEDTAVYYCRYVHYGAYYGVDAWGQGTTVTVSS
VL: DIVMTQSPLSLPVTPGEPASISCYSSQSLVHSNRNTYLHWYQQKPGQAPRLLIYKVSNRFSGVPDRFSGSGSGTDFTLKISRVEAEDVGVYYCGQGTQVPYTFGQGTKLEIK
notes: one-arm format as m2
B8: GLS3000 Q93Y (antibody, name in Kabat numbering, V domains shown)
VH: QVQLVESGGGVVQPGRSLRLSCAASGFTFSNAWMHWVRQAPGKGLEWVAQIKAKSNNYATYYAESVKGRFTISRDDSKNSLYLQMNSLKTEDTAVYYCRYVHYGAYYGVDAWGQGTTVTVSS
VL: DIVMTQSPLSLPVTPGEPASISCRSSQSLVHSNRNTYLHWYQQKPGQAPRLLIYKVSNRFSGVPDRFSGSGSGTDFTLKISRVEAEDVGVYYCGQGTYVPYTFGQGTKLEIK
notes: one-arm format as m2
B9: GLS3000 Q93R (antibody, name in Kabat numbering, V domains shown)
VH: QVQLVESGGGVVQPGRSLRLSCAASGFTFSNAWMHWVRQAPGKGLEWVAQIKAKSNNYATYYAESVKGRFTISRDDSKNSLYLQMNSLKTEDTAVYYCRYVHYGAYYGVDAWGQGTTVTVSS
VL: DIVMTQSPLSLPVTPGEPASISCRSSQSLVHSNRNTYLHWYQQKPGQAPRLLIYKVSNRFSGVPDRFSGSGSGTDFTLKISRVEAEDVGVYYCGQGTRVPYTFGQGTKLEIK
notes: one-arm format as m2
B10: GLS3000 R24P (antibody, name in Kabat numbering, V domains shown)
VH: QVQLVESGGGVVQPGRSLRLSCAASGFTFSNAWMHWVRQAPGKGLEWVAQIKAKSNNYATYYAESVKGRFTISRDDSKNSLYLQMNSLKTEDTAVYYCRYVHYGAYYGVDAWGQGTTVTVSS
VL: DIVMTQSPLSLPVTPGEPASISCPSSQSLVHSNRNTYLHWYQQKPGQAPRLLIYKVSNRFSGVPDRFSGSGSGTDFTLKISRVEAEDVGVYYCGQGTQVPYTFGQGTKLEIK
notes: one-arm format as m2
B11: GLS3000 R24S (antibody, name in Kabat numbering, V domains shown)
VH: QVQLVESGGGVVQPGRSLRLSCAASGFTFSNAWMHWVRQAPGKGLEWVAQIKAKSNNYATYYAESVKGRFTISRDDSKNSLYLQMNSLKTEDTAVYYCRYVHYGAYYGVDAWGQGTTVTVSS
VL: DIVMTQSPLSLPVTPGEPASISCSSSQSLVHSNRNTYLHWYQQKPGQAPRLLIYKVSNRFSGVPDRFSGSGSGTDFTLKISRVEAEDVGVYYCGQGTQVPYTFGQGTKLEIK
notes: one-arm format as m2
B12: GLS3000 R24G (antibody, name in Kabat numbering, V domains shown)
VH: QVQLVESGGGVVQPGRSLRLSCAASGFTFSNAWMHWVRQAPGKGLEWVAQIKAKSNNYATYYAESVKGRFTISRDDSKNSLYLQMNSLKTEDTAVYYCRYVHYGAYYGVDAWGQGTTVTVSS
VL: DIVMTQSPLSLPVTPGEPASISCGSSQSLVHSNRNTYLHWYQQKPGQAPRLLIYKVSNRFSGVPDRFSGSGSGTDFTLKISRVEAEDVGVYYCGQGTQVPYTFGQGTKLEIK
notes: one-arm format as m2
B13: GLS3000 Q93S (antibody, name in Kabat numbering, V domains shown)
VH: QVQLVESGGGVVQPGRSLRLSCAASGFTFSNAWMHWVRQAPGKGLEWVAQIKAKSNNYATYYAESVKGRFTISRDDSKNSLYLQMNSLKTEDTAVYYCRYVHYGAYYGVDAWGQGTTVTVSS
VL: DIVMTQSPLSLPVTPGEPASISCRSSQSLVHSNRNTYLHWYQQKPGQAPRLLIYKVSNRFSGVPDRFSGSGSGTDFTLKISRVEAEDVGVYYCGQGTSVPYTFGQGTKLEIK
notes: one-arm format as m2
B14: GLS3000 R24Q (antibody, name in Kabat numbering, V domains shown)
VH: QVQLVESGGGVVQPGRSLRLSCAASGFTFSNAWMHWVRQAPGKGLEWVAQIKAKSNNYATYYAESVKGRFTISRDDSKNSLYLQMNSLKTEDTAVYYCRYVHYGAYYGVDAWGQGTTVTVSS
VL: DIVMTQSPLSLPVTPGEPASISCQSSQSLVHSNRNTYLHWYQQKPGQAPRLLIYKVSNRFSGVPDRFSGSGSGTDFTLKISRVEAEDVGVYYCGQGTQVPYTFGQGTKLEIK
notes: one-arm format as m2
B15: GLS3000 R24T (antibody, name in Kabat numbering, V domains shown)
VH: QVQLVESGGGVVQPGRSLRLSCAASGFTFSNAWMHWVRQAPGKGLEWVAQIKAKSNNYATYYAESVKGRFTISRDDSKNSLYLQMNSLKTEDTAVYYCRYVHYGAYYGVDAWGQGTTVTVSS
VL: DIVMTQSPLSLPVTPGEPASISCTSSQSLVHSNRNTYLHWYQQKPGQAPRLLIYKVSNRFSGVPDRFSGSGSGTDFTLKISRVEAEDVGVYYCGQGTQVPYTFGQGTKLEIK
notes: one-arm format as m2
B16: GLS3000 R29D (antibody, name in Kabat numbering, V domains shown)
VH: QVQLVESGGGVVQPGRSLRLSCAASGFTFSNAWMHWVRQAPGKGLEWVAQIKAKSNNYATYYAESVKGRFTISRDDSKNSLYLQMNSLKTEDTAVYYCRYVHYGAYYGVDAWGQGTTVTVSS
VL: DIVMTQSPLSLPVTPGEPASISCRSSQSLVHSNDNTYLHWYQQKPGQAPRLLIYKVSNRFSGVPDRFSGSGSGTDFTLKISRVEAEDVGVYYCGQGTQVPYTFGQGTKLEIK
notes: one-arm format as m2
B17: GLS3000 R29I (antibody, name in Kabat numbering, V domains shown)
VH: QVQLVESGGGVVQPGRSLRLSCAASGFTFSNAWMHWVRQAPGKGLEWVAQIKAKSNNYATYYAESVKGRFTISRDDSKNSLYLQMNSLKTEDTAVYYCRYVHYGAYYGVDAWGQGTTVTVSS
VL: DIVMTQSPLSLPVTPGEPASISCRSSQSLVHSNINTYLHWYQQKPGQAPRLLIYKVSNRFSGVPDRFSGSGSGTDFTLKISRVEAEDVGVYYCGQGTQVPYTFGQGTKLEIK
notes: one-arm format as m2
B18: GLS3000 R29A (antibody, name in Kabat numbering, V domains shown)
VH: QVQLVESGGGVVQPGRSLRLSCAASGFTFSNAWMHWVRQAPGKGLEWVAQIKAKSNNYATYYAESVKGRFTISRDDSKNSLYLQMNSLKTEDTAVYYCRYVHYGAYYGVDAWGQGTTVTVSS
VL: DIVMTQSPLSLPVTPGEPASISCRSSQSLVHSNANTYLHWYQQKPGQAPRLLIYKVSNRFSGVPDRFSGSGSGTDFTLKISRVEAEDVGVYYCGQGTQVPYTFGQGTKLEIK
notes: one-arm format as m2
B19: GLS3000 R24A (antibody, name in Kabat numbering, V domains shown)
VH: QVQLVESGGGVVQPGRSLRLSCAASGFTFSNAWMHWVRQAPGKGLEWVAQIKAKSNNYATYYAESVKGRFTISRDDSKNSLYLQMNSLKTEDTAVYYCRYVHYGAYYGVDAWGQGTTVTVSS
VL: DIVMTQSPLSLPVTPGEPASISCASSQSLVHSNRNTYLHWYQQKPGQAPRLLIYKVSNRFSGVPDRFSGSGSGTDFTLKISRVEAEDVGVYYCGQGTQVPYTFGQGTKLEIK
notes: one-arm format as m2
B20: GLS3000 R29P (antibody, name in Kabat numbering, V domains shown)
VH: QVQLVESGGGVVQPGRSLRLSCAASGFTFSNAWMHWVRQAPGKGLEWVAQIKAKSNNYATYYAESVKGRFTISRDDSKNSLYLQMNSLKTEDTAVYYCRYVHYGAYYGVDAWGQGTTVTVSS
VL: DIVMTQSPLSLPVTPGEPASISCRSSQSLVHSNPNTYLHWYQQKPGQAPRLLIYKVSNRFSGVPDRFSGSGSGTDFTLKISRVEAEDVGVYYCGQGTQVPYTFGQGTKLEIK
notes: one-arm format as m2

Data on 20 molecules can be found in patent publication US20220040297A1 (Chugai, published 2022).

In this test the target is CD3ε homodimer protein (human, UniProt P07766 23-126, limits assumed). The test can be described thus: SPR, immobilized CD3ε homodimer.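 Note: biacore T200 surface plasmon resonance at 25 °C, antibody variants flowed as analytes over amine-coupled CD3ε homodimer on a CM4 chip, variant binding amount divided by that of GLS3000 antibody.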
CD3ε homodimer protein, sequence (P07766 23-126 limits assumed): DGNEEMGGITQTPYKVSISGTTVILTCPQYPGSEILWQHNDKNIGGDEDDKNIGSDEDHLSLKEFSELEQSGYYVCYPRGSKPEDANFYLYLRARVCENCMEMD
Procedure: Each one-amino acid altered form constructed, expressed, and purified in the paragraph (6-2) was evaluated using Biacore T200 (GE Healthcare Japan Corp.). An appropriate amount of CD3ε homodimer protein was immobilized onto Sensor chip CM4 (GE Healthcare Japan Corp.) by the amine coupling method. Then, the antibody having an appropriate concentration was injected thereto as an analyte and allowed to interact with the CD3ε homodimer protein on the sensor chip. Then, the sensor chip was regenerated by the injection of 10 mmol/L glycine-HCl (pH 1.5). The assay was conducted at 25° C., and HBS-EP+ (GE Healthcare Japan Corp.) was used as a running buffer. […] Each parameter was calculated using Biacore T200 Evaluation Software (GE Healthcare Japan Corp.).
Specifically, when the amount of the GLS3000-containing antibody bound was defined as X and the amount of the L chain one-amino acid altered form bound was defined as Y, a value of Z (ratio of amounts bound)=Y/X was used.
Regarding B1, the “ratio of amounts bound (vs GLS3000)” value worked out at 0.25. For the molecule B2, the “ratio of amounts bound (vs GLS3000)” value came out at 0.75. The result for B3 reads 0.83. Regarding B4, the “ratio of amounts bound (vs GLS3000)” value worked out at 0.68. On to B5, for which the “ratio of amounts bound (vs GLS3000)” value turned out to be 0.67. As for B6, the “ratio of amounts bound (vs GLS3000)” value stood at 0.56. Consider B7, for which the “ratio of amounts bound (vs GLS3000)” value was found to be 0.87. Consider B8, for which the “ratio of amounts bound (vs GLS3000)” value was 0.87. The result for B9 reads 1.13; that for B10, 0.7. Then B11, with 0.89; and B12, with 0.89; and B13, with 0.96. As for B14, the “ratio of amounts bound (vs GLS3000)” value was 0.9. With B15, the “ratio of amounts bound (vs GLS3000)” value came to 0.88.

As to B16, the “ratio of amounts bound (vs GLS3000)” value was 0.41. As to B17, the “ratio of amounts bound (vs GLS3000)” value is 0.37. Consider B18, for which the “ratio of amounts bound (vs GLS3000)” value came to 0.63.

Consider B19, for which the “ratio of amounts bound (vs GLS3000)” value is 0.86. The result for B20 reads 0.31.
